Data published in the supplement of paper PMC10567573.
± gives the standard deviation.

Experiment: protein stability index of a GFP-peptide fusion (GPS, HEK-293T) (PSI 1-6); higher = more stable
Conditions: c terminus: a fixed tail appended
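Also: 24-mer peptide tiles fused after GFP, lentivirally expressed, FACS-sorted into six equal bins by GFP/DsRed ratio, decoded by Illumina sequencing, PSI is the read-weighted mean bin number.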

Sequence	protein stability index (treatment: DMSO)	protein stability index (treatment: MLN4924 1 uM, 8 h)
QLYTAYILENRPPGSLLCTVAASD [PCDHGC5]	2.11 ± 0.24	2.18 ± 0.26
STMSLNIITVTLNMEKYNFLGISI [DVL3]	3.3 ± 0.42	2.89 ± 0.33
ISPKARCLIRSLLRREPSERLTAP [TRIB1]	2.22 ± 0.24	2.33 ± 0.39
VLSCEAATQTERRLDLAAVTLRRG [FAM189A2]	4.25 ± 0.19	4.28 ± 0.34
AVMEFHVSEDFNKMNFIKTYPAHQ [WDFY1]	1.99 ± 0.32	1.93 ± 0.28
QYEKYSFRGFPPEDLMPLAAAYGH [P3H4]	3.01 ± 0.4	2.55 ± 0.57
EFTELLKVMIHPDPERRPSAMALV [WEE1]	2.23 ± 0.35	2.06 ± 0.23
PLMVKGFRDAAEEGGTAVTGGQTV [SEPHS2]	5.05 ± 0.3	5.16 ± 0.13
ASGPINFTMFLNLFGEKLSGTDAE [MYL5]	2.58 ± 0.28	2.6 ± 0.4
NLTRRFSDLGFEVKCFNDLKAEEL [CASP6]	2.76 ± 0.46	3 ± 0.27
EDESQSEEENDYRNLDASPTYKGL [CEP70]	5.27 ± 0.23	5.41 ± 0.15
YLYGILEERKNEMTQVITRTQEEK [TRIM55]	3.6 ± 0.15	3.55 ± 0.31
TVLENEDDMLLFDEQEKGIVTKFY [FAN1]	3.65 ± 0.12	3.72 ± 0.26
RLWGIRKNRPAMNYDKLSRSIRQY [SPDEF]	2.4 ± 0.25	2.4 ± 0.45
DHLENVSKLVESGIQFMDEPEMAV [TRIM55]	4.54 ± 0.45	4.75 ± 0.41
VLGVADGVGGWRDYGVDPSQFSGT [PPTC7]	3.51 ± 0.24	4 ± 0.088
MEPSPLSPSGAALPLPLSLAPPPL [ZBTB22]	4.07 ± 0.35	4.11 ± 0.18
VGEVPYWVLEPVLEGWRPDQLYRR [ELOA2]	1.97 ± 0.33	2.32 ± 0.33
IMGNLLIIVTIMASQSLGSPMYFF [OR4A15]	3.35 ± 0.29	3.52 ± 0.3
VDGRHLLRTLSRAKFWPRRRFNFF [DNAAF3]	1.92 ± 0.23	2.17 ± 0.11
SNKKRPSLDGRDPGNGTHGLSPEE [ELOA2]	5.36 ± 0.27	5.33 ± 0.23
HTCLMISCYKGHREIARYLLEQGA [FEM1A]	2.46 ± 0.5	2.38 ± 0.35
KNYNYGMHYCAVPPRGPLGQGAMF [NEUROD6]	2.18 ± 0.44	2.47 ± 0.34

Sequence	protein stability index (treatment: DMSO)	protein stability index (treatment: MLN4924 1 uM, 8 h)
QALQAKASLTIPLVPETEDDRKLA [YJU2B]	5.16 ± 0.24	5.24 ± 0.11
CATGLLGSAPFLFLSLACARGSIV [SPNS1]	3.02 ± 0.21	2.88 ± 0.28
MDEISEKLKKGICEALEDSDGRQD [MATN2]	5.42 ± 0.25	5.4 ± 0.17
ASRQKTSLGIELHCNVSNILHMNG [ZNF396]	1.97 ± 0.23	2.12 ± 0.14
SVSREARQTVPPLTVRLHTQSVSE [PWWP2B]	4.29 ± 0.23	4.42 ± 0.28
FSHITSARKARKYEIPHFRLKKVE [PHTF1]	2.53 ± 0.47	2.82 ± 0.4
LRDPATITTLRVPVLRPMDLMVEA [PPP2R2B]	2.85 ± 0.15	2.94 ± 0.37
MEGLETAEGSNSESSDDDSEEAPS [SDE2]	5.51 ± 0.2	5.51 ± 0.39
VGSDPLIKSDEECRDLVDEAKNYL [KLHL20]	5.2 ± 0.11	5.09 ± 0.28
LAVFARCLAGCEGAHEQVDFKDFY [P3H4]	1.94 ± 0.45	2.02 ± 0.31
DAETPPRFTRTPVDQTGVSGGVAS [PTPRD]	5 ± 0.31	4.638 ± 0.016
MNNAQRIEKWVILEKDFSIYGGEL [ACSBG2]	2.2 ± 0.12	2.28 ± 0.57
TTEQHVPEVEVQVKRRRTASLSNQ [SNURF]	5.25 ± 0.27	5.23 ± 0.17
LSQSPEPGRRGDPDTAPPSERPLE [RTN2]	5.56 ± 0.24	5.56 ± 0.15
RRFSSEDLEDPLGGLLSYDEGGIT [FBF1]	4.57 ± 0.21	4.56 ± 0.16
QRGALPAPDPELAAEMYQRGRAVL [RSAD1]	4.36 ± 0.18	4.38 ± 0.17
YLRFIVSRMKERAIDLNKKGKDNK [ZMYND11]	2.63 ± 0.7	2.05 ± 0.3
KEDKIMLDDRKNEEDGGADEHEHP [MIA2]	5.52 ± 0.063	5.55 ± 0.19
TQHNFQEVMESEEFMLLPANQLID [KLHL20]	4.43 ± 0.18	4.66 ± 0.24
LSSYISINSDTGVLYALRSFDYEQ [PCDHGA10]	2.12 ± 0.23	2.27 ± 0.092
VCSILLGTSTLLVWVGVIRYLTFF [MCOLN1]	3.3 ± 0.42	3.02 ± 0.079
NSTLDPHGHLILHSMHKYQPRIHL [TBX6]	2.19 ± 0.17	2.34 ± 0.26
GGLLDEAMLDEISLMDLAIEEGFN [NFE2L1]	4.16 ± 0.21	3.86 ± 0.31

Sequence	protein stability index (treatment: DMSO)	protein stability index (treatment: MLN4924 1 uM, 8 h)
EFRDDRDLVMALSAGGHGGLLNDT [KCNA4]	4.06 ± 0.35	3.91 ± 0.23
TLLLELEQDSGVQVEGLTVQYLGQ [ADAMTS4]	2.87 ± 0.72	3.23 ± 0.38
CPGKGAWSIPWKWLFGATAVALGG [FKBP8]	2.42 ± 0.3	2.37 ± 0.25
MPLSGTPAPNKKRKSSKLIMELTG [MYOZ1]	3.63 ± 0.24	3.81 ± 0.22
PTLDAPGGRALVVRKVPPGYSIKV [SMAD6]	2.83 ± 0.17	3.17 ± 0.19
NFFRMFDRNTKRDVTLEASRESSK [PPP2R2C]	3.74 ± 0.32	3.73 ± 0.26
LIVGRIAIGVSISLSSIATCVYIA [SLC2A12]	3.09 ± 0.45	3.01 ± 0.39
DDALEDFKKVLDLNPGFQDATLSL [TTC32]	3.73 ± 0.32	3.85 ± 0.32
AYEIMQTLHPDASANFHSLDDIYY [FUT8]	2.85 ± 0.25	2.93 ± 0.37
DDFFRHESGEHFRSLLGYDPQILQ [RAD54B]	3.44 ± 0.22	3.29 ± 0.26
QPSFPEILLESHMVMIRGNSGLKP [POMT2]	2.79 ± 0.3	3.07 ± 0.21
DELAHRCSSFMAPPVTDLGELRRR [CPOX]	3.92 ± 0.11	4.04 ± 0.3
EGHLDDGGYTPDLKMSYSRGLIPV [RBMY1A1]	3.25 ± 0.14	3.15 ± 0.38
VENELMISYLMFLQILVYFSFMSW [FAM98B]	2.94 ± 0.45	3.14 ± 0.05
YRQSSFPHCSDLMPSGSEEKILRE [KCNA4]	4.25 ± 0.29	4.26 ± 0.14
GQTTGHPYYLRSFLVVLKTVLENE [FAN1]	2.46 ± 0.5	2.21 ± 0.04
SMFTLPVVYVKHQAQIDQYLGLVR [RTN1]	2.5 ± 0.49	2.23 ± 0.41
FSIDEELVYENFYADFGPLNLAMV [CDC14A]	2.75 ± 0.6	2.43 ± 0.6
HCGELKRRLGLSTLGELKQNLSRS [TPD52L2]	3.04 ± 0.22	3.22 ± 0.44
RSCAIVEDDGLQSAFTAAHELGHV [ADAMTS4]	3.62 ± 0.43	3.55 ± 0.2
SSFQDLLGDALAGPPRAPGRSGWP [HES6]	3.13 ± 0.12	3.11 ± 0.18
VEESEASSSVSISHSASATGNVCI [LMNB1]	4.84 ± 0.11	4.71 ± 0.12
FMEERELLGQDEETAMRKSLGEEE [RSPH3]	5.58 ± 0.12	5.46 ± 0.4

Sequence	protein stability index (treatment: DMSO)	protein stability index (treatment: MLN4924 1 uM, 8 h)
SLVWGMVCGQNWGIVEAMVVCRQL [LOXL2]	2.46 ± 0.82	3.07 ± 0.36
FPEELHRKAALEQDLAFWYGPRWQ [HMOX1]	2.3 ± 0.25	2.62 ± 0.31
QILPVLDFCKVFLISGVTLDNCVE [KLHL13]	3.21 ± 0.41	2.49 ± 0.064
NGVSGPSQDLLPPPNPYPLPQEHS [TBX5]	4.64 ± 0.33	4.54 ± 0.56
EEPSKYGVVVCEADTGRIHRFVEK [GMPPB]	3.94 ± 0.32	3.99 ± 0.18
YRGAVYADSGNFKRCINLWKYALD [FEM1C]	2.32 ± 0.08	2.33 ± 0.18
QNLNDRLASYLEKVRALEEANADL [KRT13]	4.13 ± 0.17	3.98 ± 0.39
KKHYRLQFYMFGWTHVTLLIVVTQ [CDS2]	2.89 ± 0.55	2.58 ± 0.71
HFCVDDTKLLSGSYDCTVKLWDPV [WDR88]	2.65 ± 0.24	2.58 ± 0.23
LRADNAFMLLTQARLFDEPQLASL [BTBD1]	2.46 ± 0.85	2.34 ± 0.47
NGTRVQEEPELVFTLGDCDVIQAL [FKBP8]	3.72 ± 0.28	3.83 ± 0.17
NECEITKRRRKSCQACRFMKCLKV [ESRRG]	2.57 ± 0.056	2.95 ± 0.38
AGSTDDRIVVPQRGRSTRVPVASV [SPNS1]	4.22 ± 0.077	4.39 ± 0.45
EQLEAEAQALRQELERQRRLLGSV [PBXIP1]	4.04 ± 0.22	4.02 ± 0.21
PAWNSKLQYILAQIGFSVGLGNIW [SLC6A17]	2.83 ± 0.45	2.47 ± 0.12
PSEEYGKILEVVGRYSVHNAGISF [MLH1]	2.32 ± 0.36	
DTETFTWSQPITTGKAPSPRAAHA [KLHDC2]	4.31 ± 0.082	4.41 ± 0.51
CKNGETLLGAVNFFVSSINTLVTK [ARFIP2]	2.72 ± 0.75	2.64 ± 0.88
RLAQGNPQQGFFSSFFTCNQKCQL [ATP23]	2.49 ± 0.45	2.53 ± 0.23
WGHCEIRMRYLNGLDPEPLPLMDL [SPSB1]	2.42 ± 0.59	2.36 ± 0.59
LAPGPAPTRCLPGHKEEEDGEGAG [ESRRA]	5.45 ± 0.16	5.48 ± 0.081
